Several values for one entry are separate records, joined by “and”; a condition that tells them apart may be missing. Identical values can stand only once.
B1: HIS029-vc-MMAE (other)
VH: QVHLQQPGAELVRPGASVKLSCKASGYTFTNYWINWVKQRPGQGLEWIGNIYPSDSYTNYNQKFKDKATLTVDKSSSTAYVHLSSPTSEDSAVYYCTKWGDSDYWGQGTTLTVSS
VL: DIKMTQSPSSMYASLGERVTITCKASQDINRYLRWFQQKPGKSPKTLIYRANRLVDGVPSRFSGSGSGQDYSLTISSLEYEDMGIYYCLQYDEFPFTFGSGTKLEIK
modifications: monomethyl auristatin E coupled through a maleimidocaproyl-Val-Cit-PAB linker by a thiol-based reaction; sites not stated
B2: HIS029 (antibody, V domains shown)
VH: QVHLQQPGAELVRPGASVKLSCKASGYTFTNYWINWVKQRPGQGLEWIGNIYPSDSYTNYNQKFKDKATLTVDKSSSTAYVHLSSPTSEDSAVYYCTKWGDSDYWGQGTTLTVSS
VL: DIKMTQSPSSMYASLGERVTITCKASQDINRYLRWFQQKPGKSPKTLIYRANRLVDGVPSRFSGSGSGQDYSLTISSLEYEDMGIYYCLQYDEFPFTFGSGTKLEIK
notes: Monoclonal antibody from a hybridoma, V regions amplified with mouse Ig primers; also called anti-CD44 v7/8 antibody; antibody clone HIS029
B3: Humanized HIS029 (antibody, V domains shown)
VH: QVQLVQSGSELKKPGASVKVSCKASGYTFTNYWINWVRQAPGQGLEWMGNIYPSDSYTNYNQKFKDRAVFSVDKSVSTAYLQISSLKAEDTAVYYCTKWGDSDYWGQGTTVTVSS
VL: DIQMTQSPSSLSASVGDRVTITCKASQDINRYLRWFQQKPGKSPKTLIYRANRLVDGVPSRFSGSGSGQDYTLTISSLQPEDFATYYCLQYDEFPFTFGQGTKLEIK
notes: also called humanized HIS029 antibody

Columns and labels:
[1] = molecular target: T1, CD44 v7/8 (human CD44 v7/8 splice variant) on CD44+ cells (human, UniProt P16070 21-742); assay: cell-based or functional assay
[2] = molecular target: T1, CD44 v7/8 (human CD44 v7/8 splice …); assay: flow cytometry on CD44+ A253 cells, antibody titration
[3] = molecular target: T1, CD44 v7/8 (human CD44 v7/8 splice …); assay: flow cytometry on A253 cells; HIS029 (parental antibody), A253 cells
[4] = molecular target: T1, CD44 v7/8 (human CD44 v7/8 splice …); assay: flow cytometry on A253 cells; humanized HIS029, A253 cells

T1 sequence (P16070 21-742 limits assumed, change not shown): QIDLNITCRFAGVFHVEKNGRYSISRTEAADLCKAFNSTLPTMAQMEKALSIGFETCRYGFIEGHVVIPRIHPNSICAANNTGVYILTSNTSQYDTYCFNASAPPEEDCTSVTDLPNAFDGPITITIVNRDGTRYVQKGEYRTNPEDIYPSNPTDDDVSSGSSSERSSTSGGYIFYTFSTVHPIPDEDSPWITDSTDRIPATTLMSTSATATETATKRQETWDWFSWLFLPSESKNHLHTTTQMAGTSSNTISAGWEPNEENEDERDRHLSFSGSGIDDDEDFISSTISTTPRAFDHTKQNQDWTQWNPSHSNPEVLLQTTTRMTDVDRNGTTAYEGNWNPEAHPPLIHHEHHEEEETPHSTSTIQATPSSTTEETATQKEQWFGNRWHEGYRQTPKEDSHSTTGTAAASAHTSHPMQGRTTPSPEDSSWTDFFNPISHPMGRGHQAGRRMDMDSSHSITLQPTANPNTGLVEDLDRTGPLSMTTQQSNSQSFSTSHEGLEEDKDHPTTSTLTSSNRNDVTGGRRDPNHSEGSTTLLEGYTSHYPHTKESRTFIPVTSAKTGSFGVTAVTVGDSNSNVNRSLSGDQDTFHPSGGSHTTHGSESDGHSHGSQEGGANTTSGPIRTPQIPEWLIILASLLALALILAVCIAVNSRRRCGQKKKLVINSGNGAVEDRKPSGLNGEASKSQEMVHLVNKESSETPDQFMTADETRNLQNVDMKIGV

Binder	cell viability, IC50 (A253 cells) [1]	cell viability, IC50 (BXPC3 cells) [1]	cell viability, IC50 (D562 cells) [1]	cell viability, IC50 (NCI-H520 cells) [1]	EC50 (read off the curve) [2]	Kd [3]	Kd [4]
B1	0.797 nM	0.189 nM	0.63 nM	0.588 nM			
B2					~40 nM	35 nM	
B3					~40 nM and ~60 nM		36 nM

Source: patent US20220049008A1 (MULTITUDE, published 2022)
